Assay results taken from publication PMC5993284, “Peptide inhibitors of the anaphase promoting-complex that cause sensitivity to microtubule poison” (PLoS ONE, 2018).
“Also recorded” adds a separate entry of the source. Ends that are not written are not given here. * marks the point of attachment. Biotin = O=C1N[C@H]2[C@H](CS[C@H]2CCCCC(=O)*)N1

B1: Mad3-Bub3 complex + 0.5 μM Mad2: Mad3-Bub3 complex in the presence of 0.5 μM Mad2 (protein)
chain 1: MKAYAKKRISYMPSSPSQNVINFEEIETQKENILPLKEGRSAAALSKAIHQPLVEINQVKSSFEQRLIDELPALSDPITLYLEYIKWLNNAYPQGGNSKQSGMLTLLERCLSHLKDLERYRNDVRFLKIWFWYIELFTRNSFMESRDIFMYMLRNGIGSELASFYEEFTNLLIQKEKFQYAVKILQLGIKNKARPNKVLEDRLNHLLRELGENNIQLGNEISMDSLESTVLGKTRSEFVNRLELANQNGTSSDVNLTKNNVFVDGEESDVELFETPNRGVYRDGWENFDLKAERNKENNLRISLLEANTNLGELKQHEMLSQKKRPYDEKLPIFRDSIGRSDPVYQMINTKDQKPEKIDCNFKLIYCEDEESKGGRLEFSLEEVLAISRNVYKRVRTNRKHPREANLGQEESANQKEAEAQSKRPKISRKALVSKSLTPSNQGRMFSGEEYINCPMTPKGRSTETSDIISAVKPRQLTPILEMRESNSFSQSKNSEIISDDDKSSSSFISYPPQR
chain 2: MQIVQIEQAPKDYISDIKIIPSKSLLLITSWDGSLTVYKFDIQAKNVDLLQSLRYKHPLLCCNFIDNTDLQIYVGTVQGEILKVDLIGSPSFQALTNNEANLGICRICKYGDDKLIAASWDGLIEVIDPRNYGDGVIAVKNLNSNNTKVKNKIFTMDTNSSRLIVGMNNSQVQWFRLPLCEDDNGTIEESGLKYQIRDVALLPKEQEGYACSSIDGRVAVEFFDDQGDDYNSSKRFAFRCHRLNLKDTNLAYPVNSIEFSPRHKFLYTAGSDGIISCWNLQTRKKIKNFAKFNEDSVVKIACSDNILCLATSDDTFKTNAAIDQTIELNASSIYIIFDYEN
chain 3: MSQSISLKGSTRTVTEFFEYSINSILYQRGVYPAEDFVTVKKYDLTLLKTHDDELKDYIRKILLQVHRWLLGGKCNQLVLCIVDKDEGEVVERWSFNVQHISGNSNGQDDVVDLNTTQSQIRALIRQITSSVTFLPELTKEGGYTFTVLAYTDADAKVPLEWADSNSKEIPDGEVVQFKTFSTNDHKVGAQVSYKY
modifications: Mad2 added separately at 0.5 uM
B2: biotinylated-PQ65: PQ65 containing an N-terminal biotin (peptide, UniProt P26309 169-232, looked up, fragment)
chain: Biotin-PPNASPISHLRAQTKIVFKQNVAEACGLDMNKRILQYMPEPPKCSSLRQKSYIMKKRTHYSYQQ

Tests used:
APC/C^Cdc20 = biological target: T1, APC/C^Cdc20 (Saccharomyces cerevisiae, UniProt P16522+P53886); experiment: biochemical; type: biochemical; details: for inhibition of APC/C^Cdc20 activity (in words): 220 μM peptide, 35S-Pds1 substrate, time course 0-60 minutes, vs buffer only, n = 3
T1 construct: constructed within full-length Cdc20 by site-directed mutagenesis for analysis in vitro in the APC/C^Cdc20 assay; The APC/C was purified for enzyme assays from 1 mL of TAP-tagged Cdc16 yeast extract (SCSY51); made in house; host or cells: Cdc20: in vitro transcription/translation in rabbit reticulocyte lysate, used unpurified; APC/C: S. cerevisiae strain SCSY51 (Cdc16-TAP) extract, captured on IgG magnetic beads
Procedure: Full-length, radio-labeled protein purifications were preformed as previously described. ^35S-Pds1 was prepared in a 500 μL IVT/T (In Vitro Transcription/Translation) reaction (Promega, USA), which contained 400 μL rabbit reticulocyte lysate, 20 μL of L-^35S-methionine (PerkinElmer, USA), 10 μg of plasmid DNA, and the remaining volume as nuclease-free ddH2O as recommended by the manufacturer. The reaction mixture was incubated for 2 hours at room temperature and gently mixed every 30 minutes. The reaction was added to pre-equilibrated IgG Sepharose beads (GE Healthcare, USA) in Bio-spin disposable chromatography columns (Bio-Rad, USA) for binding for 2 hours at room temperature. To ensure efficient binding, the beads were re-suspended several times every 30 minutes. After binding, the beads were washed with 5 mL wash buffer, containing 200 mM 4-(2-hydroxyethyl)-1-piperazineethanesulfonic acid (HEPES) at pH 8.0, 150 mM NaCl, 10% (v/v) glycerol, and 1 mM dithiothreitol (DTT). The ^35S-Pds1 was cleaved from the beads using TEV (Tobacco Etch Virus) protease in 1x TEV buffer (Invitrogen, USA) for 2 hours at room temperature, and the mixture was re-suspended several times every 30 minutes to promote efficient cleavage. The elution was collected and concentrated by employing an Amicon Ultra filter column (Millipore, Ireland). The concentrated ^35S-Pds1 was collected in a new tube, and stored at -20 °C.
The production of Cdc20 or Cdh1 was prepared by IVT/T reactions, where 16 μL of rabbit reticulocyte lysate, 20 μM L-methionine, 0.4 μg of plasmid DNA, and a volume of nuclease-free ddH2O for a total volume of 20 μL. This freshly synthesized Cdc20 or Cdh1 protein was used directly in all APC/C assays after a 1-hour synthesis reaction at room temperature. The APC/C was purified for enzyme assays from 1 mL of TAP-tagged Cdc16 yeast extract (SCSY51) where extract was mixed with 50 μL 50:50 slurry magnetic beads (Invitrogen, Norway) for 2 hours at 4 °C. After incubation, the beads were washed with 3 mL APC/C wash buffer (200 mM of HEPES, 150 mM of NaCl and 10% (v/v) of glycerol). APC/C bound to IgG magnetic beads was used directly in the enzyme assays.
APC/C assays were performed by adding the reaction contents in following order: 4.3 μL of QAH buffer, 20 μL of rabbit reticulocyte lysate containing Cdc20 or Cdh1 with or without an additional volume of recombinant checkpoint protein(s) or inhibitor peptides, 2.4 μL ubiquitin aldehyde (Boston Biochem, USA), APC/C, 16 μL pre-charged E1/E2/ATP/ubiquitin mix, and 13.3 μL of ^35S-Pds1 with QAH buffer (20 mM HEPES at pH 8.0, 100 mM NaCl, and 1 mM MgCl2). The E1/E2/ATP/ubiquitin mix were pre-charged by mixing 1 μL of E1 (Boston Biochem, USA), 1 μL of E2 (Boston Biochem, USA), 14.4 μL of ATP, 14.4 μL of […] (Boston Biochem, USA), and 17.2 μL of QAH buffer and incubated for 15 minutes at room temperature. Approximately 15 μL of samples were taken out at each time point, and the reaction was stopped by the addition of 2x protein sample buffer (125 mM Tris-HCl pH 6.8, 4% SDS, 20% glycerol, and 0.002% bromophenol blue, with 10% (final v/v) 2-mercaptoethanol added in fresh directly before use).
For inhibitor titration and time-course experiments, recombinant Bub3, Mad2, Mad3, and the Mad3-Bub3 complex were expressed and purified as previously described. […] For inhibition of APC/C the co-factor Cdc20 or Cdh1 was made fresh by IVT/T, and pure recombinant checkpoint proteins or inhibitor peptides were added to the IVT/T mixture and incubated for an additional hour at room temperature. In titrations, a dilution series of the checkpoint protein(s) were made before incubation with the Cdc20 co-factor. SDS-PAGE was performed using stand protocols (BioRad, USA).

APC/C = experiment: Biotinylated peptide pull-down of purified APC/C, Western blot; type: binding, Saccharomyces cerevisiae; details: 20 μM biotinylated peptide, purified yeast APC/C, 1 h at 4 °C, streptavidin/Avidin beads, n = 3
Procedure: For APC/C purification, the APC/C which contain Cdc16-TAP-tag was isolated from 2 mL arrested yeast lysate by 120 μL IgG sepharose 6 Fast Flow beads (GE Healthcare Life Sciences) and incubate for 2 h at 4 °C on a rotating wheel. Beads were collected washed with 5 mL of APC/C wash buffer (200 mM Hepes pH8.0, 150 mM NaCl, 10% glycerol). Beads were resuspended in 150 μL of APC/C wash buffer contain 17.6 units of AcTEV protease (Invitrogen, Carlsbad, CA) at 4°C for 3 h with pipetting every 20 minutes. The purified APC/C was collected in the flow-through.
For APC/C binding assays, 20 μM biotinylated peptides or 20 μM peptides only as a negative control were incubated with purified APC/C and 100 μL APC/C wash buffer which contains phosphatase inhibitors (200 mM Hepes pH 8.0, 150 mM NaCl, 10% glycerol, 10 mM NaF, 1 mM NaVO4, 5 mM Na-pyrophosphate, 10 mM 2-glycerol phosphate) for 1 h at 4 °C. The mixtures were applied to 120 μL streptavidin beads (Dynabeads MyOne Streptavidin T1, Invitrogen) for 30 min at 4 °C with gentle pipetting every 10 min. Beads were washed with 1 mL of PBST buffer (Phosphate buffer saline and 0.1% Tween 20) three times SDS-PAGE protein sample was added directly. For APC/C binding competition experiments, the biotinylated peptide and 10-fold excess non-biotinylated peptides were added to purified APC/C at same time.
Free D-biotin in 10% DMSO was used for the control binding assays. For pre-coating APC/C with biotin, a modified APC/C purification was performed. 2 mL yeast lysate was incubated with 120 μL IgG Sepharose beads and additional 20.4 μM free biotin or non-biotin solvent as a positive control was added and samples were incubated for 2 h at 4 °C on a rotating wheel. Purified pre-coated APC/C was then removed from the IgG Sepharose following the standard purification procedure. 20 μM biotinylated peptides or 20 μM peptides as a negative control were incubated with pre-coated APC/C and 100 μL APC/C wash buffer which contain phosphatase inhibitors for 1 h at 4 °C. In addition, 20 μM biotinylated peptide was added and incubated with pre-coated APC/C in a non-biotin containing solvent as positive control. Pre-coated APC/C binding procedures were same as above. For pre-coating streptavidin beads with biotin, streptavidin beads were washed in the presence of 10.2 nmol/mL D-biotin in PBST buffer or non-biotin solvent as a positive control before use. Pre-coated streptavidin beads were incubated with purified APC/C-peptide complexes with an extra […] biotin for 30 minutes with gentle pipetting every 10 min at 4 °C.
Proteins were separated in SDS-PAGE gels and then were transferred to PVDF membrane. Blocking was performed by incubating samples in 20 mL PBST with 5% milk at 4 °C. Rabbit anti-tap (Thermo, CAB1001) was used as primary antibodies at a 1:1000 dilution and incubated for 2 hours at RT. Anti-rabbit HRP (Jackson, USA) was then used as secondary antibody at 1:5000 dilution and incubate for 1 hr at RT. Chemiluminescence signals were detected using an ImageQuant LAS 4000 (GE Healthcare Bio-Sciences, USA). For cell cycle timing Western blots anti-MYC and anti-Actin antibodies were employed (ABCAM, UK).

| Molecule | inhibition of APC/C^Cdc20 activity (in words) (APC/C^Cdc20) | binding to APC/C (in words) (APC/C) | IC50 (APC/C^Cdc20; Mad3-Bub3 complex in the presence of 0.5 μM Mad2, ± sd, three independent titrations, read-out: IC50) [nM] |
| --- | --- | --- | --- |
| SQ19: C-terminal 19 amino acids, SQ19 (Cdc20 213–232) peptide (SSLRQKSYIMKKRTHYSYQQ; UniProt P26309 213-232, looked up, fragment) | displayed a low level of inhibitory activity | displayed the ability to bind APC/C similar to the control peptide DQ36 |  |
| biotinylated-DQ36: DQ36 containing an N-terminal biotin (Biotin-DMNKRILQYMPEPPKCSSLRQKSYIMKKRTHYSYQQ) |  | able to pull-down purified APC/C |  |
| DK27: defined Mad2-binding motif peptide DK27 (Cdc20 197–223) (Biotin-DMNKRILQYMPEPPKCSSLRQKSYIMK) | displayed a diminished ability to inhibit APC/C^Cdc20 although a significant difference with the buffer only control was still observed | retained the ability to bind with the APC/C; also recorded: displayed the ability to bind APC/C similar to the control peptide DQ36 |  |
| PS46: N-terminal 46 amino acid peptide called PS46 (Cdc20 167–213) (LPPPNASPISHLRAQTKIVFKQNVAEACGLDMNKRILQYMPEPPKCS; UniProt P26309 167-213, looked up, fragment) | observed to inhibit APC/C^Cdc20 | able to bind to the APC/C directly, although consistently weaker binding was observed relative to DQ36; also recorded: consistently observed to have weaker APC/C binding activity relative to wild type DQ36 |  |
| B1 |  |  | 70 ± 3 |
| B2 |  | able to pull-down purified APC/C |  |
